Measurements from the supplement of paper PMC10567573.

B1: KLHL14 (parent)
chain: YVIGGRNETGYLSSVECYNLETNE

Variants of: B1
Assay: protein stability index of a GFP-peptide fusion (GPS, HEK-293T) (PSI 1-6); higher = more stable
Details: c terminus: a fixed tail appended
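Further: lentivirally expressed fusions sorted by FACS into six bins by GFP to DsRed ratio, PSI derived from sequencing read proportions per bin multiplied by bin number.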

| Variant | protein stability index |
| --- | --- |
| YVIGGRNETGYLSSVECYNHETNE | 2.34 |
| YVIGGRNETGYLSSVECYNAETNE | 2.12 |
| YVIGGRNETGYLSSVECYNPETNE | 1.83 |
| YVIGGRNETGYLSSVECYNRETNE | 2.39 |
| YVIGGRNETGYLSSVECYNSETNE | 2.18 |
| YVIGGRNETGYLSSVECYNYETNE | 2.02 |
| YVIGGRNETGYLSSVECYNQETNE | 2.48 |
| YVIGGRNETGYLSSVECYNTETNE | 2.36 |
| YVIGGRNETGYLSSVECYNNETNE | 2.79 |
| YVIGGRNETGYLSSVECYNIETNE | 2.21 |
| YVIGGRNETGYLSSVECYNWETNE | 1.55 |
| YVIGGRNETGYLSSVECYNKETNE | 2.09 |
| YVIGGRNETGYLSSVECYNEETNE | 3.04 |
| YVIGGRNETGYLSSVECYNVETNE | 1.78 |
| YVIGGRNETGYLSSVECYNCETNE | 2.09 |
| YVIGGRNETGYLSSVECYNDETNE | 2.79 |
| YVIGGRNETGYLSSVECYNMETNE | 1.96 |
| YVIGGRNETGYLSSVECYNGETNE | 1.82 |
| YVIGGRNETGYLSSVECYNFETNE | 1.98 |
| YVIGGRNETGYLSSVECYNLETIE | 1.56 |
| YVIGGRNETGYLSSVECYNLETPE | 1.75 |
| YVIGGRNETGYLSSVECYNLETHE | 1.86 |
| YVIGGRNETGYLSSVECYNLETGE | 1.74 |
| YVIGGRNETGYLSSVECYNLETLE | 1.66 |

| Variant | protein stability index |
| --- | --- |
| YVIGGRNETGYLSSVECYNLETKE | 1.96 |
| YVIGGRNETGYLSSVECYNLETEE | 2.67 |
| YVIGGRNETGYLSSVECYNLETAE | 2.06 |
| YVIGGRNETGYLSSVECYNLETDE | 2.75 |
| YVIGGRNETGYLSSVECYNLETCE | 2.45 |
| YVIGGRNETGYLSSVECYNLETFE | 1.88 |
| YVIGGRNETGYLSSVECYNLETME | 1.89 |
| YVIGGRNETGYLSSVVCYNLETNE | 3.5 |
| YVIGGRNETGYLSSVGCYNLETNE | 1.54 |
| YVIGGRNETGYLSSVFCYNLETNE | 3.4 |
| YVIGGRNETGYLSSVDCYNLETNE | 2.41 |
| YVIGGRNETGYLSSVCCYNLETNE | 2.58 |
| YVIGGRNETGYLSSVICYNLETNE | 1.83 |
| YVIGGRNETGYLSSVLCYNLETNE | 2.09 |
| YVIGGRNETGYLSSVNCYNLETNE | 2.33 |
| YVIGGRNETGYLSSVPCYNLETNE | 2.45 |
| YVIGGRNETGYLSSVKCYNLETNE | 1.28 |
| YVIGGRNETGYLSSVHCYNLETNE | 1.62 |
| YVIGGRNETGYLSSVYCYNLETNE | 1.84 |
| YVIGGRNETGYLSSVRCYNLETNE | 2.16 |
| YVIGGRNETGYLSSVWCYNLETNE | 2.93 |
| YVIGGRNETGYLSSVSCYNLETNE | 2.18 |
| YVIGGRNETGYLSSVTCYNLETNE | 1.96 |
| YVIGGRNETGYLSSVQCYNLETNE | 1.96 |

| Variant | protein stability index |
| --- | --- |
| YVIGGRNETGYLSSVMCYNLETNE | 1.45 |
| YVIGGRNETGYLSSVACYNLETNE | 1.27 |
| YVIGGRNETGYLSSVECYNLITNE | 2.05 |
| YVIGGRNETGYLSSVECYNLRTNE | 1.91 |
| YVIGGRNETGYLSSVECYNLFTNE | 2.62 |
| YVIGGRNETGYLSSVECYNLPTNE | 1.93 |
| YVIGGRNETGYLSSVECYNLMTNE | 1.74 |
| YVIGGRNETGYLSSVECYNLTTNE | 1.68 |
| YVIGGRNETGYLSSVECYNLQTNE | 2.39 |
| YVIGGRNETGYLSSVECYNLSTNE | 2.29 |
| YVIGGRNETGYLSSVECYNLNTNE | 1.55 |
| YVIGGRNETGYLSSVECYNLATNE | 2.66 |
| YVIGGRNETGYLSSVECYNLDTNE | 1.8 |
| YVIGGRNETGYLSSVECYNLCTNE | 2.61 |
| YVIGGRNETGYLSSVECYNLYTNE | 2.17 |
| YVIGGRNETGYLSSVECYNLGTNE | 2.19 |
| YVIGGRNETGYLSSVECYNLHTNE | 1.63 |
| YVIGGRNETGYLSSVECYNLVTNE | 1.54 |
| YVIGGRNETGYLSSVECYNLKTNE | 2.26 |
| YVIGGRNETGYLSSVECYNLLTNE | 1.67 |
| YVIGGRNETGYLSSVECYNLWTNE | 3.54 |
| YVIGGRNETGYLSNVECYNLETNE | 2.12 |
| YVIGGRNETGYLSRVECYNLETNE | 1.58 |
| YVIGGRNETGYLSGVECYNLETNE | 2.31 |

| Variant | protein stability index |
| --- | --- |
| YVIGGRNETGYLSIVECYNLETNE | 2.56 |
| YVIGGRNETGYLSTVECYNLETNE | 1.99 |
| YVIGGRNETGYLSHVECYNLETNE | 1.8 |
| YVIGGRNETGYLSCVECYNLETNE | 2.4 |
| YVIGGRNETGYLSLVECYNLETNE | 1.75 |
| YVIGGRNETGYLSFVECYNLETNE | 1.47 |
| YVIGGRNETGYLSQVECYNLETNE | 2.5 |
| YVIGGRNETGYLSWVECYNLETNE | 2.88 |
| YVIGGRNETGYLSYVECYNLETNE | 2.01 |
| YVIGGRNETGYLSVVECYNLETNE | 2.08 |
| YVIGGRNETGYLSAVECYNLETNE | 1.7 |
| YVIGGRNETGYLSEVECYNLETNE | 2.91 |
| YVIGGRNETGYLSKVECYNLETNE | 1.35 |
| YVIGGRNETGYLSPVECYNLETNE | 1.61 |
| YVIGGRNETGYLSMVECYNLETNE | 2.3 |
| YVIGGRNETGYLSDVECYNLETNE | 2.38 |
| YVIGGRNETGYLSSVEDYNLETNE | 2.82 |
| YVIGGRNETGYLSSVEWYNLETNE | 2.17 |
| YVIGGRNETGYLSSVESYNLETNE | 2.11 |
| YVIGGRNETGYLSSVEKYNLETNE | 2.28 |
| YVIGGRNETGYLSSVEAYNLETNE | 2.06 |
| YVIGGRNETGYLSSVEQYNLETNE | 2.43 |
| YVIGGRNETGYLSSVEGYNLETNE | 2.8 |
| YVIGGRNETGYLSSVEEYNLETNE | 2.22 |

| Variant | protein stability index |
| --- | --- |
| YVIGGRNETGYLSSVEIYNLETNE | 2.5 |
| YVIGGRNETGYLSSVERYNLETNE | 2.39 |
| YVIGGRNETGYLSSVEFYNLETNE | 1.66 |
| YVIGGRNETGYLSSVEMYNLETNE | 1.78 |
| YVIGGRNETGYLSSVEPYNLETNE | 2.23 |
| YVIGGRNETGYLSSVEYYNLETNE | 1.78 |
| YVIGGRNETGYLSSVEVYNLETNE | 1.48 |
| YVIGGRNETGYLSSVEHYNLETNE | 2.08 |
| YVIGGRNETGYLSSVELYNLETNE | 2.56 |
| YVIGGRNETGYLSSVETYNLETNE | 2.56 |
| YVIGGRNETGYLSSVENYNLETNE | 2.44 |
| YVIGGRNETGYLSSNECYNLETNE | 2.46 |
| YVIGGRNETGYLSSGECYNLETNE | 2.05 |
| YVIGGRNETGYLSSEECYNLETNE | 2.69 |
| YVIGGRNETGYLSSMECYNLETNE | 1.84 |
| YVIGGRNETGYLSSIECYNLETNE | 1.83 |
| YVIGGRNETGYLSSFECYNLETNE | 1.52 |
| YVIGGRNETGYLSSKECYNLETNE | 2.12 |
| YVIGGRNETGYLSSDECYNLETNE | 2.95 |
| YVIGGRNETGYLSSHECYNLETNE | 2.24 |
| YVIGGRNETGYLSSYECYNLETNE | 1.5 |
| YVIGGRNETGYLSSTECYNLETNE | 1.74 |
| YVIGGRNETGYLSSPECYNLETNE | 2.46 |
| YVIGGRNETGYLSSSECYNLETNE | 2.5 |

| Variant | protein stability index |
| --- | --- |
| YVIGGRNETGYLSSQECYNLETNE | 2.49 |
| YVIGGRNETGYLSSWECYNLETNE | 2.21 |
| YVIGGRNETGYLSSRECYNLETNE | 2.01 |
| YVIGGRNETGYLSSAECYNLETNE | 1.76 |
| YVIGGRNETGYLSSLECYNLETNE | 1.9 |
| YVIGGRNETGYLSSCECYNLETNE | 1.66 |
| YVIGGRNETGYLSSVECYNLESNE | 1.4 |
| YVIGGRNETGYLSSVECYNLEDNE | 2.07 |
| YVIGGRNETGYLSSVECYNLEKNE | 2.2 |
| YVIGGRNETGYLSSVECYNLEANE | 2 |
| YVIGGRNETGYLSSVECYNLEPNE | 1.76 |
| YVIGGRNETGYLSSVECYNLEYNE | 2.06 |
| YVIGGRNETGYLSSVECYNLEENE | 2.84 |
| YVIGGRNETGYLSSVECYNLEFNE | 1.54 |
| YVIGGRNETGYLSSVECYNLECNE | 1.79 |
| YVIGGRNETGYLSSVECYNLEHNE | 2.54 |
| YVIGGRNETGYLSSVECYNLERNE | 2.62 |
| YVIGGRNETGYLSSVECYNLENNE | 1.63 |
| YVIGGRNETGYLSSVECYNLELNE | 2.1 |
| YVIGGRNETGYLSSVECYNLEQNE | 1.94 |
| YVIGGRNETGYLSSVECYNLEMNE | 1.49 |
| YVIGGRNETGYLSSVECYNLEVNE | 2.6 |
| YVIGGRNETGYLSSVECYNLEGNE | 1.86 |
| YVIGGRNETGYLSSVECYNLEINE | 1.84 |

| Variant | protein stability index |
| --- | --- |
| YVIGGRNETGYLSSVECYNLEWNE | 1.53 |
| YVIGGRNETGYLSSVECYFLETNE | 3.39 |
| YVIGGRNETGYLSSVECYHLETNE | 2.04 |
| YVIGGRNETGYLSSVECYMLETNE | 1.8 |
| YVIGGRNETGYLSSVECYDLETNE | 2.41 |
| YVIGGRNETGYLSSVECYVLETNE | 1.66 |
| YVIGGRNETGYLSSVECYALETNE | 2.15 |
| YVIGGRNETGYLSSVECYELETNE | 2.22 |
| YVIGGRNETGYLSSVECYGLETNE | 1.7 |
| YVIGGRNETGYLSSVECYLLETNE | 2.08 |
| YVIGGRNETGYLSSVECYYLETNE | 1.76 |
| YVIGGRNETGYLSSVECYPLETNE | 2.1 |
| YVIGGRNETGYLSSVECYWLETNE | 2.77 |
| YVIGGRNETGYLSSVECYTLETNE | 2.17 |
| YVIGGRNETGYLSSVECYQLETNE | 2 |
| YVIGGRNETGYLSSVECYRLETNE | 1.49 |
| YVIGGRNETGYLSSVECYSLETNE | 1.83 |
| YVIGGRNETGYLSSVECYKLETNE | 2.13 |
| YVIGGRNETGYLSSVECYILETNE | 2.07 |
| YVIGGRNETGYLSSVECYCLETNE | 1.57 |
| YVIGGRNETGYLRSVECYNLETNE | 2.23 |
| YVIGGRNETGYLYSVECYNLETNE | 1.79 |
| YVIGGRNETGYLQSVECYNLETNE | 1.64 |
| YVIGGRNETGYLTSVECYNLETNE | 1.79 |

| Variant | protein stability index |
| --- | --- |
| YVIGGRNETGYLVSVECYNLETNE | 1.89 |
| YVIGGRNETGYLSSVECLNLETNE | 2.11 |
| YVIGGRNETGYLSSVECPNLETNE | 2.45 |
| YVIGGRNETGYLSSVECGNLETNE | 2.57 |
| YVIGGRNETGYLSSVECENLETNE | 2.48 |
| YVIGGRNETGYLSSVECINLETNE | 2.5 |
| YVIGGRNETGYLSSVECVNLETNE | 2.05 |
| YVIGGRNETGYLSSVECNNLETNE | 2.61 |
| YVIGGRNETGYLSSVECSNLETNE | 2.14 |
| YVIGGRNETGYLSSVECRNLETNE | 2.6 |
| YVIGGRNETGYLSSVECWNLETNE | 2.21 |
| YVIGGRNETGYLSSVECKNLETNE | 1.96 |
| YVIGGRNETGYLSSVECFNLETNE | 2.1 |
| YVIGGRNETGYLSSVECMNLETNE | 2.4 |
| YVIGGRNETGYLSSVECCNLETNE | 1.71 |
| YVIGGRNETGYLSSVECQNLETNE | 2.34 |
| YVIGGRNETGYLSSVECANLETNE | 2.76 |
| YVIGGRNETGYLSSVECDNLETNE | 2.77 |
| YVIGGRNETGYLSSVECTNLETNE | 2.72 |
| YVIGGRNETGYLSSVECHNLETNE | 2.32 |
